{"source": "patent US9605038B2", "about": "“Fusion peptide comprising dhFas-1 domain and MMP substrate and use thereof for preventing and treating rheumatoid arthritis” (Kyungpook National University Industry-Academic Cooperation …, priority 2010, dated 2017)", "key": {"[1]": {"biological_target": "T1, MMP1 (Homo sapiens, UniProt P03956)", "T1 sequence (P03956 100-469)": "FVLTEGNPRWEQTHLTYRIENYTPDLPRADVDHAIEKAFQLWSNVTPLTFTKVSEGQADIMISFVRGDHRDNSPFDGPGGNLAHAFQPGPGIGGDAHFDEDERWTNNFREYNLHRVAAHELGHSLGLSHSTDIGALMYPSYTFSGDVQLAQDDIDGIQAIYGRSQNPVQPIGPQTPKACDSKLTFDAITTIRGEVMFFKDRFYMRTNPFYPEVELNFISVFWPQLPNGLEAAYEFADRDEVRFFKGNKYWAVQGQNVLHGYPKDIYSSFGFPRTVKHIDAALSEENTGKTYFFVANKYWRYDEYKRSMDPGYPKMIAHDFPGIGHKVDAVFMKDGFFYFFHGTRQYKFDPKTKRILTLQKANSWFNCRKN", "test": "Enzymatic digestion test, MMP1", "type": "biochemical", "conditions": "3 ug peptide, MMP1 5, 10, 50 ng, 37° C. 4 hours", "procedure": "(§1) 3 ug of synthesized mdhFas-1-MMPsubstrate structure modified protein, together with MMP1 (5 ng, 10 ng and 50 ng), MMP2 (100 ng, 200 ng and 800 ng), MMP3 (10 ng, 50 ng and 100 ng), cathepsin D (5 ng, 10 ng and 50 ng), cathepsin L (100 ng, 200 ng and 800 ng), and cathepsin K (10 ng, 50 ng and 100 ng), was mixed with enzyme buffer (150 mM NaCl, 5 mM. CaCl2, 20 mM Tris-HCl pH7.5), and reacted at 37° C. for 4 hours. The resultant product was subjected to electrophoresis through 15% polyacrylamide gel, transferred to a Nitrocellulose Membrane (Schleicher & Schuell), blocked at room temperature for 1 hour with TBST solution containing 3% BSA (20 mmole/L Tris-HCl, 137 mmole//l NaCl, 0.1% Tween-20), washed TBST solution three times (each for 10 minutes), and reacted with primary antibody (anti-Histidine or anti-Bigh3) for 1 hour. The resultant product was washed with TBST solution three times (each for 10 minutes), reacted with a secondary antibody conjugated to horseradish peroxidase (HRP) for 1 hour, washed TBST solution three times (each for 10 minutes), and visualized by ECL (Amersham Biosciences, UK) so as to detect the change in the amount of mdhFas-1-MMPsubstrate-RGD structural peptide."}, "[2]": {"test_system": "mouse fibroblast (NIH3T3)", "test": "βig-h3-mediated cell adhesion test, NIH3T3", "type": "cell-based", "conditions": "for βig-h3-mediated cell adhesion: NIH3T3, βig-h3 5 ug/ml coat", "procedure": "(§2) Human βig-h3 was introduced into a 96-well plate at a concentration of 5 ug/ml, and coated for 14 hours at 4° C. In DMEM+0.5% BSA (Bovine Serum Albumin) culture medium, human fibroblast (NIH3T3) was introduced, and hsdhFas-1 peptide at concentrations was injected thereto, followed by mixing. The resultant mixture was cultured at 37° C. for 30 minutes, and plated on a coated well. It was cultured for 2 hours, and washed with PBS (phosphate buffered saline) so as to remove unattached cells, and then added with a substrate (4-Nitrophenyl N-acetyl-β-D-glucosaminide, Sigma, U.S.) to be activated by β-N-acetylglucosaminidase within the cell, followed by culturing at 37° C. for 1 hour. Then, a glycine EDTA solution (0.5M EDTA, 50 mM glycine, pH 10.4) was added thereto, and the coloring extent according to the number of attached cells was measured by absorbance.\nAlso, a structurally modified peptide of a fas-1 domain of mouse βig-h3 was synthesized as a recombinant peptide (hereinafter, referred to as ‘mdhFas-1peptide’, see FIG. 2), and a mouse cell line, that is, NIH3T3 cell line, was used to test the inhibiting effect by mdhFas-1 peptide on adhesion and migration of a Synovial membrane cell in the same manner as that in the test using human βig-h3.\nas §2, with “βig-h3” for “Human βig-h3”, “mouse” for “human”, “MFK23, MFK24, MFK25 or MFK27” for “hsdhFas-1 peptide”"}, "[3]": {"biological_target": "cathepsin D (Homo sapiens, UniProt P07339)", "sequence (P07339 65-412, species assumed)": "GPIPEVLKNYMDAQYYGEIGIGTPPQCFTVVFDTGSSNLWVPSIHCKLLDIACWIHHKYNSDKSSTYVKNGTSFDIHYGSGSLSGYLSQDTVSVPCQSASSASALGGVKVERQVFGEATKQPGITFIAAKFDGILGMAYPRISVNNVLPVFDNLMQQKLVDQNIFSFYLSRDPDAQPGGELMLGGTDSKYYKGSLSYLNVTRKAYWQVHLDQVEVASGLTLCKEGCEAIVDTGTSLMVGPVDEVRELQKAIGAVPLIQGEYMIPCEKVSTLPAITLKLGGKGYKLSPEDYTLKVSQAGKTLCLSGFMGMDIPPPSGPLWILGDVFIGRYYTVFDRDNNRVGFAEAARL", "test": "Enzymatic digestion test, cathepsin D", "type": "biochemical", "conditions": "3 ug peptide, cathepsin D 5, 10, 50 ng, 37° C. 4 hours", "procedure": "as §1"}, "[4]": {"test": "Toxicity test in CIA mouse (weight, serologic test, blood test)", "conditions": "for body weight change compared to control group: 22nd day vs 48th day; for overall toxicity: serologic test, blood test, weight; for ALT / AST / BUN / Crea / PLT / RBC / WBC: CIA model, 4 weeks", "method": "On the 48th day, a serologic test and a blood test were carried out."}, "[5]": {"biological_target": "T2, cathepsin K (Homo sapiens, UniProt P43235)", "T2 sequence (P43235 115-329)": "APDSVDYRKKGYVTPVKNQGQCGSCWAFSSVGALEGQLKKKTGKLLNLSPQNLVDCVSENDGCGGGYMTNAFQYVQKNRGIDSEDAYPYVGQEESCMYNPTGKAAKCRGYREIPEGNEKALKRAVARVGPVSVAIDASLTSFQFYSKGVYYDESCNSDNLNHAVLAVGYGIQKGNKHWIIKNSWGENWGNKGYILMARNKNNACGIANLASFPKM", "test": "Enzymatic digestion test, cathepsin K", "type": "biochemical", "conditions": "3 ug peptide, cathepsin K 10, 50, 100 ng, 37° C. 4 hours", "procedure": "as §1"}, "[6]": {"biological_target": "cathepsin L (Homo sapiens, UniProt P07711)", "sequence (P07711 114-333, species assumed)": "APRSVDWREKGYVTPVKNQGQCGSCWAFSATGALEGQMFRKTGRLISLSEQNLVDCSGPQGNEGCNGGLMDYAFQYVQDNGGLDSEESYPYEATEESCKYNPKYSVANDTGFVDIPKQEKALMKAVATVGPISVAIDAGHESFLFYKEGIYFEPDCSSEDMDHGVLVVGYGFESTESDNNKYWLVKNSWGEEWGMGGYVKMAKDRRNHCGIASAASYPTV", "test": "Enzymatic digestion test, cathepsin L", "type": "biochemical", "conditions": "3 ug peptide, cathepsin L 100, 200, 800 ng, 37° C. 4 hours", "procedure": "as §1"}}, "note": "“Also recorded” adds a separate entry of the source."}
{"molecule": "MFK23: fusion peptide having sequential links of mdhFas-1, MMP2 substrate GPLGVRG (SEQ ID NO: 5), and QERGDSLA (SEQ ID NO: 10) (protein, MFK23) QAMPPEELNKLLANAKELTNILKYHIGDEILVSGGIGALVRLKSLQGDKLEVSSKNNVVSVNKEPVAETDIMEFGPLGVRGVDGQERGDSLAGLE", "values": [{"measurement": "cleavage through treatment with MMP-1", "setting": "[1]", "result": "not cleaved"}, {"measurement": "concentration at which treatment inhibited the adhesion", "setting": "[2]; NIH3T3, FIG. 14", "result": "≥ 5", "unit": "µM"}, {"measurement": "βig-h3-mediated cell adhesion", "setting": "[2]", "result": "even at a very low concentration can inhibit the cell adhesion; also recorded: concentration-dependently inhibited"}, {"measurement": "cleavage through treatment with cathepsin D", "setting": "[3]", "result": "not cleaved"}, {"measurement": "death during the therapy period", "setting": "[4]; CIA mouse", "result": "No mouse died"}, {"measurement": "body weight change compared to control group", "setting": "[4]; CIA mouse", "result": "maintained similarly to that of the control group"}, {"measurement": "overall toxicity", "setting": "[4]; CIA mouse", "result": "a low toxicity and a low dangerousness"}, {"measurement": "cleavage through treatment with cathepsin K", "setting": "[5]", "result": "not cleaved"}, {"measurement": "cleavage through treatment with cathepsin L", "setting": "[6]", "result": "not cleaved"}]}
{"molecule": "MFK24: fusion peptide having sequential links of mdhFas-1, MMP1 substrate GPQGIAG (SEQ ID NO: 6), and QERGDSLA (SEQ ID NO: 10) (protein, MFK24) QAMPPEELNKLLANAKELTNILKYHIGDEILVSGGIGALVRLKSLQGDKLEVSSKNNVVSVNKEPVAETDIMEFGPQGIAGVDGQERGDSLAGLE", "values": [{"measurement": "cleavage through treatment with MMP-1", "setting": "[1]", "result": "concentration-dependently cleaved"}, {"measurement": "adhesion inhibiting effect", "setting": "[2]; NIH3T3, concentration of 0.5uM, FIG. 15C", "result": "≥ 80", "unit": "%"}, {"measurement": "βig-h3-mediated cell adhesion", "setting": "[2]", "result": "even at a very low concentration can inhibit the cell adhesion; also recorded: concentration-dependently inhibited"}, {"measurement": "cleavage through treatment with cathepsin D", "setting": "[3]", "result": "not cleaved"}, {"measurement": "ALT", "setting": "[4]; 0.1 mg/kg", "result": "37.8 ± 7.1", "unit": "U/L"}, {"measurement": "AST", "setting": "[4]; 0.1 mg/kg", "result": "224.3 ± 13", "unit": "U/L"}, {"measurement": "BUN", "setting": "[4]; 0.1 mg/kg", "result": "19.0 ± 3.3", "unit": "mg/dL"}, {"measurement": "Crea", "setting": "[4]; 0.1 mg/kg", "result": "0.54 ± 0.10", "unit": "mg/dL"}, {"measurement": "PLT", "setting": "[4]; 0.1 mg/kg", "result": "1280.2 ± 284 ×10^3/ul"}, {"measurement": "RBC", "setting": "[4]; 0.1 mg/kg", "result": "12.3 ± 0.7 ×10^6/ul"}, {"measurement": "WBC", "setting": "[4]; 0.1 mg/kg", "result": "5.0 ± 1.2 ×10^3/ul"}, {"measurement": "ALT", "setting": "[4]; 1 mg/kg", "result": "40.6 ± 7.2", "unit": "U/L"}, {"measurement": "AST", "setting": "[4]; 1 mg/kg", "result": "270.5 ± 17", "unit": "U/L"}, {"measurement": "BUN", "setting": "[4]; 1 mg/kg", "result": "21.2 ± 3.4", "unit": "mg/dL"}, {"measurement": "Crea", "setting": "[4]; 1 mg/kg", "result": "0.54 ± 0.14", "unit": "mg/dL"}, {"measurement": "PLT", "setting": "[4]; 1 mg/kg", "result": "1155.3 ± 184 ×10^3/ul"}, {"measurement": "RBC", "setting": "[4]; 1 mg/kg", "result": "10.9 ± 1.7 ×10^6/ul"}, {"measurement": "WBC", "setting": "[4]; 1 mg/kg", "result": "3.7 ± 0.5 ×10^3/ul"}, {"measurement": "ALT", "setting": "[4]; 10 mg/kg", "result": "43.6 ± 14.2", "unit": "U/L"}, {"measurement": "AST", "setting": "[4]; 10 mg/kg", "result": "222.0 ± 25", "unit": "U/L"}, {"measurement": "BUN", "setting": "[4]; 10 mg/kg", "result": "20.4 ± 4.4", "unit": "mg/dL"}, {"measurement": "Crea", "setting": "[4]; 10 mg/kg", "result": "0.54 ± 0.11", "unit": "mg/dL"}, {"measurement": "PLT", "setting": "[4]; 10 mg/kg", "result": "1050.1 ± 359 ×10^3/ul"}, {"measurement": "RBC", "setting": "[4]; 10 mg/kg", "result": "11.4 ± 1.5 ×10^6/ul"}, {"measurement": "WBC", "setting": "[4]; 10 mg/kg", "result": "5.0 ± 1.8 ×10^3/ul"}, {"measurement": "ALT", "setting": "[4]; 30 mg/kg", "result": "28.9 ± 8.2", "unit": "U/L"}, {"measurement": "AST", "setting": "[4]; 30 mg/kg", "result": "286.6 ± 48", "unit": "U/L"}, {"measurement": "BUN", "setting": "[4]; 30 mg/kg", "result": "12.4 ± 4.8", "unit": "mg/dL"}, {"measurement": "Crea", "setting": "[4]; 30 mg/kg", "result": "0.33 ± 0.02", "unit": "mg/dL"}, {"measurement": "PLT", "setting": "[4]; 30 mg/kg", "result": "674.7 ± 111 ×10^3/ul"}, {"measurement": "RBC", "setting": "[4]; 30 mg/kg", "result": "12.4 ± 0.1 ×10^6/ul"}, {"measurement": "WBC", "setting": "[4]; 30 mg/kg", "result": "6.1 ± 1.1 ×10^3/ul"}, {"measurement": "death during the therapy period", "setting": "[4]; CIA mouse", "result": "No mouse died"}, {"measurement": "body weight change compared to control group", "setting": "[4]; CIA mouse", "result": "maintained similarly to that of the control group"}, {"measurement": "bilirubin and creatine compared to control group", "setting": "[4]; CIA mouse, 48th day", "result": "no significant difference"}, {"measurement": "erythrocytes, leukocytes, platelets and liver function values (AST and ALT) compared to control", "setting": "[4]; CIA mouse, 48th day", "result": "did not show abnormalities"}, {"measurement": "overall toxicity", "setting": "[4]; CIA mouse", "result": "a low toxicity and a low dangerousness"}, {"measurement": "cleavage through treatment with cathepsin K", "setting": "[5]", "result": "not cleaved"}, {"measurement": "cleavage through treatment with cathepsin L", "setting": "[6]", "result": "not cleaved"}]}
